The assay concerns the target T1, HLA-A*02:01 (human).
T1 construct: monomers captured on streptavidin plates; also called MHC class I
Description: UV peptide exchange ELISA. From the text:
Candidate peptides for T cell based therapies according to the present invention were further tested for their MHC binding capacity (affinity). The individual peptide-MHC complexes were produced by UV-ligand exchange, where a UV-sensitive peptide is cleaved upon UV-irradiation, and exchanged with the peptide of interest as analyzed. Only peptide candidates that can effectively bind and stabilize the peptide-receptive MHC molecules prevent dissociation of the MHC complexes. To determine the yield of the exchange reaction, an ELISA was performed based on the detection of the light chain (p2m) of stabilized MHC complexes.
96 well MAXISorp plates (NUNC) were coated over night with 2 μg/ml streptavidin in PBS at room temperature, washed 4× and blocked for 1 h at 37° C. in 2% BSA containing blocking buffer. […] Peptide-MHC monomers of the UV-exchange reaction were diluted 100 fold in blocking buffer. Samples were incubated for 1h at 37° C., washed four times, incubated with 2 μg/ml HRP conjugated anti-p2m for 1h at 37° C., washed again and detected with TMB solution that is stopped with […]. Absorption was measured at 450 nm.
A general note: ELISA stands for enzyme-linked immunosorbent assay.

This passage reports peptide exchange yield results from patent US20170037110A1 (IMMATICS BIOTECHNOLOGIES, published 2017).

Bounds are passed on as bounds.

For KVLEVTEEFGV, the peptide exchange yield lay in the range of 50 to 75%.

Consider SLLDEIRAV, for which the peptide exchange yield was in the range of 50 to 75%.

The molecule YLNHLEPPV gave a peptide exchange yield of 50 to 75%.

Molecule QLLDADGFLNV gave a peptide exchange yield of 50 to 75%.

On to ILFEDIFDV, for which the peptide exchange yield was 50 to 75%.

YLMDINGKMWL yielded a peptide exchange yield of 50 to 75%.

Molecule LLQEGQALEYV registered a peptide exchange yield of 20 to 50%.

YLYSVEIKL registered a peptide exchange yield of at least 75%.

Molecule LLWAGTAFQV displayed a peptide exchange yield of 50 to 75%.

Molecule YQQAQVPSV yielded a peptide exchange yield of 50 to 75%.

For ALLEGVNTV, the peptide exchange yield was 50 to 75%.

FLFDEEIEQI: the peptide exchange yield was 50 to 75%.

In the case of FTLGNVVGMYL, the peptide exchange yield was at least 75%.

The molecule KILDADIQL showed a peptide exchange yield of at least 75%.

FLIANVLYL: the peptide exchange yield lay in the range of 10 to 20%.

LLLPLQILL displayed a peptide exchange yield of 50 to 75%.

With GAAKDLPGV, the peptide exchange yield was in the range of 20 to 50%.

On to TLFFQQNAL, for which the peptide exchange yield was in the range of 20 to 50%.

On to KLFDVDEDGYI, for which the peptide exchange yield lay in the range of 50 to 75%.

As to RLQETLSAA, the peptide exchange yield fell in the range of 50 to 75%.

Take KIFEMLEGV: the peptide exchange yield lay within 50 to 75%.

On to KMLDGASFTL, for which the peptide exchange yield was 50 to 75%.

MLLEAPGIFL returned a peptide exchange yield of 50 to 75%.

GLFPVTPEAV: the peptide exchange yield is 50 to 75%.

As to RQISIRGIVGV, the peptide exchange yield lay in the range of 50 to 75%.

YLLPEEYTSTL gave a peptide exchange yield of at least 75%.

The molecule ALPLFVITV had a peptide exchange yield of 50 to 75%.

ALLPQPKNLTV showed a peptide exchange yield of 50 to 75%.

Molecule RVANLHFPSV registered a peptide exchange yield of 50 to 75%.

Turning to SLNDEVPEV, the peptide exchange yield fell in the range of 20 to 50%.

ALDEMGDLLQL showed a peptide exchange yield of 50 to 75%.

Turning to GLVGNPLPSV, the peptide exchange yield is at least 75%.

In turn, FQIDPHSGLVTV gave a peptide exchange yield of 20 to 50%.

KVLNELYTV showed a peptide exchange yield of 50 to 75%.

As for GLFADLLPRL, the peptide exchange yield lay within 50 to 75%.

As for VLYSYTIITV, the peptide exchange yield is 20 to 50%.

As for ALQRKLPYV, the peptide exchange yield lay in the range of 50 to 75%.

For YLMEGSYNKVFL, the peptide exchange yield fell in the range of 20 to 50%.

Turning to NLPEYLPFV, the peptide exchange yield was in the range of 50 to 75%.

Take FLATFPLAAV: the peptide exchange yield was at least 75%.

The molecule FGLDLVTEL came in with a peptide exchange yield of 50 to 75%.

ALTEIAFVV gave a peptide exchange yield of at least 75%.

In the case of ALAQYLITA, the peptide exchange yield was 50 to 75%.

As for FLSSLTETI, the peptide exchange yield was in the range of 50 to 75%.

Molecule ALDDGTPAL gave a peptide exchange yield of 20 to 50%.

FLIDDKGYTL registered a peptide exchange yield of 20 to 50%.

With LLDSASAGLYL, the peptide exchange yield lay in the range of 50 to 75%.

Consider SLVGLLLYL, for which the peptide exchange yield is at least 75%.

In turn, YLFENISQL displayed a peptide exchange yield of 50 to 75%.
